This is an account of results in paper PMC7705443 (2020).

The assay addresses SARS-CoV-2 RBD (residues 319-541), C-terminal his-tag (SARS-CoV-2, UniProt P0DTC2 319-541). The assay can be described thus: SPR. (SPR reads the build-up and loss of mass on a sensor chip optically.)

The term koff denotes the first-order rate constant of dissociation. Read a high koff as a short-lived complex.

B1: P17 antibody (full-length IgG1) (antibody, V domains shown)
VH: QQLVESGGGVVQPGRSLRLSCAASGFTFSSYAMHWVRQAPGKGLEWVAVISYDGSNKYYADSVKGRFTISRDNSKNTLYLQMNSLRAEDTAVYYCARHATLMNNKDIWGQGTLVTVSS
VL: not shown
The molecule B1 returned a koff of 0.000221 s⁻¹.
